Measurements as given in patent US20250326839A1 (VIGIL NEUROSCIENCE, published 2025).
Numbering of substitutions follows the chain as printed.

T1: human TREM2 (human, UniProt Q9NZC2 19-174, limits assumed)
T1 construct: also called triggering receptor expressed on myeloid cells 2
T1 sequence: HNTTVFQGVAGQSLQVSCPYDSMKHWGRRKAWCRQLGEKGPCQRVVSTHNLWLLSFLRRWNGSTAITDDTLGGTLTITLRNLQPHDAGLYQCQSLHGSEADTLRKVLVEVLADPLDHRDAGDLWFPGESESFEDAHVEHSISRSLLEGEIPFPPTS

B1: V1 (antibody, V domains shown)
VH: EVQLVQSGAEVKKPGESLKISCKGSGYSFTSSWIAWVRQMPGKGLEWMGIIYPGDSDTRYSPSFQGQVTISADKSISTAYLQWSSLKASDTAMYFCARSRTFYYDSSDYFDYWGQGTLVTVSS
VL: DIQMTQSPSSVSASVGDRVTITCRASQGISSWLAWYQQKPGKAPKLLIYAASSLTNGVPSRFSGSGSGTDFTLTISSLQPEDFATYFCQQADSYPRTFGQGTKLEIK
notes: also called 6E7 variant V1
B2: V16 (antibody, V domains shown)
VH: B1 VH with F29M, S32Y, S56G
VL: B1 VL with S53N, T55Q, Y94F
notes: also called 6E7 variant V16
B3: V13 (antibody, V domains shown)
VH: B1 VH with T30G, S32Y, P62A, S99G
VL: B1 VL with T55Q, N56G, Y94M
notes: also called 6E7 variant V13
B4: V5 (antibody, V domains shown)
VH: B1 VH with S32Y, I50T, S99Q
VL: B1 VL with T55Q, Y94H
notes: also called 6E7 variant V5
B5: V15 (antibody, V domains shown)
VH: B1 VH with T30A, S32Y, I50T
VL: B1 VL with S53W, T55Q
notes: also called 6E7 variant V15
B6: V27 (antibody, V domains shown)
VH: B1 VH with S32Y, S61A, A97V
VL: B1 VL with T55Q, N56R, Y94F
notes: also called 6E7 variant V27; LV-103/HV-103
B7: V4 (antibody, V domains shown)
VH: B1 VH with T30G, S32Y, Y60V
VL: B1 VL with S53R, T55Q
notes: also called 6E7 variant V4
B8: V29 (antibody, V domains shown)
VH: B1 VH with T30K, S32Y, S99Q
VL: B1 VL with T55Q, Y94F
notes: also called 6E7 variant V29
B9: V26 (antibody, V domains shown)
VH: B1 VH with S32Y, A35G, I50T, S99Q, F102M, Y112A
VL: B1 VL with T55Q, N56R
notes: also called 6E7 variant V26
B10: V24 (antibody, V domains shown)
VH: B1 VH with S32Y, T58V
VL: B1 VL with T55Q, N56K, Y94F, R96H
notes: also called 6E7 variant V24
B11: V14 (antibody, V domains shown)
VH: B1 VH with T30G, S32Y, S56Q, S99G
VL: B1 VL with S53R, T55Q, Y94F
notes: also called 6E7 variant V14
B12: V17 (antibody, V domains shown)
VH: B1 VH with T30G, S32Y
VL: B1 VL with L54R, T55Q, Y94S
notes: also called 6E7 variant V17
B13: V28 (antibody, V domains shown)
VH: B1 VH with T30Q, S32Y, I50T, S99Q, Y103F
VL: B1 VL with T55Q, N56S, Y94L
notes: also called 6E7 variant V28
B14: V2 (antibody, V domains shown)
VH: B1 VH with Y27S, S32Y, S56G
VL: B1 VL with L54R, T55Q, S93R, Y94F
notes: also called 6E7 variant V2
B15: V25 (antibody, V domains shown)
VH: B1 VH with T30G, S32Y, I50L
VL: B1 VL with T55A, Y94M
notes: also called 6E7 variant V25
B16: V3 (antibody, V domains shown)
VH: B1 VH with T30A, S32Y, G66D, S99G
VL: B1 VL with L54R, T55Q, S93R, Y94F
notes: also called 6E7 variant V3; LV-101/HV-101
B17: V36 (antibody, V domains shown)
VH: B1 VH with S32Y, I34L
VL: B1 VL with L54R, T55Q
notes: also called 6E7 variant V36
B18: V66 (antibody, V domains shown)
VH: B1 VH with Y27T, S32Y, S99Q
VL: B1 VL with T55Q, Y94F
notes: also called 6E7 variant V66
B19: V79 (antibody, V domains shown)
VH: B1 VH with S32Y, R59N, S99Q
VL: B1 VL with T55Q, Y94F
notes: also called 6E7 variant V79
B20: V59 (antibody, V domains shown)
VH: B1 VH with S32Y, S99Q
VL: B1 VL with T55Q, Q89M, Y94F
notes: also called 6E7 variant V59
B21: V93 (antibody, V domains shown)
VH: B1 VH with S32Y, S99Q
VL: B1 VL with S31G, T55Q, Y94F
notes: also called 6E7 variant V93
B22: V71 (antibody, V domains shown)
VH: B1 VH with S32Y, S99Q
VL: B1 VL with T55Q, Y94E
notes: also called 6E7 variant V71
B23: V67 (antibody, V domains shown)
VH: B1 VH with S32Y, I50M, S99Q
VL: B1 VL with T55Q, Y94F
notes: also called 6E7 variant V67
B24: V92 (antibody, V domains shown)
VH: B1 VH with S32Y, S99Q, Y103H
VL: B1 VL with T55Q, Y94F
notes: also called 6E7 variant V92
B25: V78 (antibody, V domains shown)
VH: B1 VH with S28R, S32Y, S99Q
VL: B1 VL with T55Q, Y94F
notes: also called 6E7 variant V78
B26: V83 (antibody, V domains shown)
VH: B1 VH with S32Y, S99Q
VL: B1 VL with T55Q, D92V, Y94F
notes: also called 6E7 variant V83
B27: V68 (antibody, V domains shown)
VH: B1 VH with S32Y, S99Q, Y103R
VL: B1 VL with T55Q, Y94F
notes: also called 6E7 variant V68
B28: V90 (antibody, V domains shown)
VH: B1 VH with S32E, S99Q
VL: B1 VL with S31R, T55Q, Y94F
notes: also called 6E7 variant V90; LV-206/HV-206
B29: V58 (antibody, V domains shown)
VH: B1 VH with S32Y, S99Q
VL: B1 VL with A50K, T55Q, Y94F
notes: also called 6E7 variant V58
B30: V80 (antibody, V domains shown)
VH: B1 VH with S32Y, S99Q, T101N
VL: B1 VL with T55Q, Y94F
notes: also called 6E7 variant V80
B31: V81 (antibody, V domains shown)
VH: B1 VH with S32Y, S99Q
VL: B1 VL with W32L, T55Q, Y94F
notes: also called 6E7 variant V81
B32: V94 (antibody, V domains shown)
VH: B1 VH with S32Y, S99Q
VL: B1 VL with S52A, T55Q, Y94F
notes: also called 6E7 variant V94
B33: V70 (antibody, V domains shown)
VH: B1 VH with S32Y, S99Q
VL: B1 VL with S52G, T55Q, Y94F
notes: also called 6E7 variant V70; LV-204/HV-15
B34: V82 (antibody, V domains shown)
VH: B1 VH with S32Y, S99Q
VL: B1 VL with A51G, T55Q, Y94F
notes: also called 6E7 variant V82
B35: V91 (antibody, V domains shown)
VH: B1 VH with S32Y, G54D, S99Q
VL: B1 VL with T55Q, Y94F
notes: also called 6E7 variant V91
B36: V69 (antibody, V domains shown)
VH: B1 VH with S32Y, S99Q
VL: B1 VL with W32Y, T55Q, Y94F
notes: also called 6E7 variant V69
B37: V12 (antibody, V domains shown)
VH: B1 VH with S28E, S32Y, T58V, S99G
VL: B1 VL with T55Q, N56R, Y94F
notes: also called 6E7 variant V12

Target: T1, human TREM2
Test: 2nd screen, 2 nM

Binding Signal	Binder
1.29 fold over 6E7 parental antibody	B1
3.57 fold over 6E7 parental antibody	B2
1.15 fold over 6E7 parental antibody	B3
1.25 fold over 6E7 parental antibody	B4
4.72 fold over 6E7 parental antibody	B5
5.67 fold over 6E7 parental antibody	B6
5.88 fold over 6E7 parental antibody	B7
0.84 fold over 6E7 parental antibody	B8
2.83 fold over 6E7 parental antibody	B9
1.42 fold over 6E7 parental antibody	B10
2.57 fold over 6E7 parental antibody	B11
4.22 fold over 6E7 parental antibody	B12
2.63 fold over 6E7 parental antibody	B13
2.23 fold over 6E7 parental antibody	B14
3.15 fold over 6E7 parental antibody	B15
1.95 fold over 6E7 parental antibody	B16
4 fold over 6E7 parental antibody	B17

Target: T1, human TREM2
Test: 1st screen, 110 nM Ab

Binding Signal	Binder
0.25 fold over 6E7 parental antibody	B18
0.7 fold over 6E7 parental antibody	B19
0.19 fold over 6E7 parental antibody	B20
0.35 fold over 6E7 parental antibody	B21
0.37 fold over 6E7 parental antibody	B22
0.8 fold over 6E7 parental antibody	B23
0.22 fold over 6E7 parental antibody	B24
0.86 fold over 6E7 parental antibody	B25
0.2 fold over 6E7 parental antibody	B26
0.44 fold over 6E7 parental antibody	B27
0.33 fold over 6E7 parental antibody	B28
0.28 fold over 6E7 parental antibody	B29
0.59 fold over 6E7 parental antibody	B30
0.17 fold over 6E7 parental antibody	B31
0.31 fold over 6E7 parental antibody	B32
0.79 fold over 6E7 parental antibody	B33
0.3 fold over 6E7 parental antibody	B34
0.25 fold over 6E7 parental antibody	B35
0.41 fold over 6E7 parental antibody	B36

Target: T1, human TREM2
Test: 1st screen, 10 nM Ab

Binding Signal	Binder
1.68 fold over 6E7 parental antibody	B1
4.01 fold over 6E7 parental antibody	B2
1.31 fold over 6E7 parental antibody	B3
2.73 fold over 6E7 parental antibody	B4
5.23 fold over 6E7 parental antibody	B5
5.5 fold over 6E7 parental antibody	B6
6 fold over 6E7 parental antibody	B7
1.53 fold over 6E7 parental antibody	B8
3.57 fold over 6E7 parental antibody	B9
2.64 fold over 6E7 parental antibody	B10
4.71 fold over 6E7 parental antibody	B11
5.37 fold over 6E7 parental antibody	B12
3.08 fold over 6E7 parental antibody	B13
2.55 fold over 6E7 parental antibody	B14
4.23 fold over 6E7 parental antibody	B15
1.97 fold over 6E7 parental antibody	B16
3.38 fold over 6E7 parental antibody	B17

Target: T1, human TREM2
Test: 2nd screen, 10 nM

Binding Signal	Binder
1.92 fold over 6E7 parental antibody	B1
4.04 fold over 6E7 parental antibody	B2
1.35 fold over 6E7 parental antibody	B3
2.84 fold over 6E7 parental antibody	B4
4.78 fold over 6E7 parental antibody	B5
5.69 fold over 6E7 parental antibody	B6
5.51 fold over 6E7 parental antibody	B7
1.67 fold over 6E7 parental antibody	B8
3.47 fold over 6E7 parental antibody	B9
2.58 fold over 6E7 parental antibody	B37
2.9 fold over 6E7 parental antibody	B10
4.64 fold over 6E7 parental antibody	B11
5.51 fold over 6E7 parental antibody	B12
3.61 fold over 6E7 parental antibody	B13
2.9 fold over 6E7 parental antibody	B14
4.7 fold over 6E7 parental antibody	B15
2.24 fold over 6E7 parental antibody	B16
3.44 fold over 6E7 parental antibody	B17

Target: T1, human TREM2
Test: 2nd screen, 100 nM

Binding Signal	Binder
0.74 fold over 6E7 parental antibody	B18
0.52 fold over 6E7 parental antibody	B19
0.6 fold over 6E7 parental antibody	B20
1.05 fold over 6E7 parental antibody	B21
0.48 fold over 6E7 parental antibody	B22
0.84 fold over 6E7 parental antibody	B23
0.65 fold over 6E7 parental antibody	B24
1.11 fold over 6E7 parental antibody	B25
0.29 fold over 6E7 parental antibody	B26
0.43 fold over 6E7 parental antibody	B27
0.36 fold over 6E7 parental antibody	B28
0.68 fold over 6E7 parental antibody	B29
0.5 fold over 6E7 parental antibody	B30
0.23 fold over 6E7 parental antibody	B31
0.87 fold over 6E7 parental antibody	B32
0.84 fold over 6E7 parental antibody	B33
0.79 fold over 6E7 parental antibody	B34
0.61 fold over 6E7 parental antibody	B35
0.4 fold over 6E7 parental antibody	B36
